Tests used:
[1] = target: T1, purified recombinant human insulin receptor (IR-A) (human, UniProt P06213-2 28-1370, limits assumed); test: SPA competition, displacement of A14Tyr[125I]-human insulin from human insulin receptor, 4.5% HSA; relative to desB30 human insulin = 100%
T1 construct: The receptor was captured on SPA beads through the F12 antibody
Method: (§1) The affinity of the acylated insulin analogues of this invention for the human insulin receptor is determined by a SPA assay (Scintillation Proximity Assay) microtiterplate antibody capture assay. […] A total of 100 μl reagent mix is then added to each well in the Packard Optiplate and a dilution series of the insulin derivative is made in the Optiplate from appropriate samples. The samples are then incubated for 16 hours while gently shaken. The phases are the then separated by centrifugation for 1 min and the plates counted in a Topcounter. The binding data were fitted using the nonlinear regression algorithm in the GraphPad Prism 2.01 (GraphPad Software, San Diego, Calif.).

[2] = target: T1, purified recombinant human insulin …; test: SPA competition, displacement of A14Tyr[125I]-human insulin from human insulin receptor, 0% HSA; relative to desB30 human insulin = 100%
Method: as §1

B1: A8H, A22K(N^ε-Octadecandioyl-γGlu-[2-(2-{2-[2-(2-aminoethoxy)ethoxy]acetylamino}ethoxy)ethoxy]-acetyl), B29R, desB30 human insulin (ligand)
chain 1: GIVEQCCHSICSLYQLENYCNK
chain 2: FVNQHLCGSHLVEALYLVCGERGFFYTPR
modifications: A22K(N^ε-Octadecandioyl-γGlu-[2-(2-{2-[2-(2-aminoethoxy)ethoxy]acetylamino}ethoxy)ethoxy]-acetyl)
notes: also called C18-gGlu-OEG-OEG, A8H, A22K, B29R
IR-A affinity (4.5% HSA) [1]: 63%
IR-A affinity (0% HSA) [2]: 417%

B2: A14E, A22K(N^ε-Eicosanedioyl-γGlu-(3-(2-{2-[2-(2-aminoethoxy)ethoxy]ethoxy}ethoxy)propionyl)), B25H, B29R, desB30 human insulin (ligand)
chain 1: GIVEQCCTSICSLEQLENYCNK
chain 2: FVNQHLCGSHLVEALYLVCGERGFHYTPR
modifications: A22K(N^ε-Eicosanedioyl-γGlu-(3-(2-{2-[2-(2-aminoethoxy)ethoxy]ethoxy}ethoxy)propionyl))
notes: also called C20-gGlu-PEG3, A14E, A22K, B25H, B29R
IR-A affinity (4.5% HSA) [1]: 5.2%

B3: A14E, A22K(N^ε-Eicosanedioyl-γGlu-γGlu-(3-[2-(2-{2-[2-(2-{2-[2-(2-aminoethoxy)ethoxy]ethoxy}ethoxy)ethoxy]ethoxy}ethoxy)ethoxy]propionyl)), B25H, B29R, desB30 … (ligand)
chain 1: GIVEQCCTSICSLEQLENYCNK
chain 2: FVNQHLCGSHLVEALYLVCGERGFHYTPR
modifications: A22K(N^ε-Eicosanedioyl-γGlu-γGlu-(3-[2-(2-{2-[2-(2-{2-[2-(2-aminoethoxy)ethoxy]ethoxy}ethoxy)ethoxy]ethoxy}ethoxy)ethoxy]propionyl))
notes: also called C20-gGlu-gGlu-PEG7, A14E, A22K, B25H, B29R
IR-A affinity (0% HSA) [2]: 25%

B4: A14E, A22K(N^ε-Octadecandioyl-γGlu-(3-(2-{2-[2-(2-aminoethoxy)ethoxy]ethoxy}ethoxy)propionyl)-γGlu), B25H, B29R, desB30 human insulin (ligand)
chain 1: GIVEQCCTSICSLEQLENYCNK
chain 2: FVNQHLCGSHLVEALYLVCGERGFHYTPR
modifications: A22K(N^ε-Octadecandioyl-γGlu-(3-(2-{2-[2-(2-aminoethoxy)ethoxy]ethoxy}ethoxy)propionyl)-γGlu)
notes: also called C18-gGlu-PEG3-gGlu, A14E, A22K, B25H, B29R
IR-A affinity (0% HSA) [2]: 23%

B5: A14E, A22K(N^ε-Octadecandioyl-γGlu-(3-[2-(2-{2-[2-(2-{2-[2-(2-aminoethoxy)ethoxy]ethoxy}ethoxy)ethoxy]ethoxy}ethoxy)ethoxy]propionyl)), B25H, B29R, desB30 … (ligand)
chain 1: GIVEQCCTSICSLEQLENYCNK
chain 2: FVNQHLCGSHLVEALYLVCGERGFHYTPR
modifications: A22K(N^ε-Octadecandioyl-γGlu-(3-[2-(2-{2-[2-(2-{2-[2-(2-aminoethoxy)ethoxy]ethoxy}ethoxy)ethoxy]ethoxy}ethoxy)ethoxy]propionyl))
notes: also called C18-gGlu-PEG7, A14E, A22K, B25H, B29R
IR-A affinity (0% HSA) [2]: 28%

B6: A14E, A22K(N^ε-[2-(2-[2-(2-[2-(Octadecandioyl-γGlu)amino]ethoxy)ethoxy]acetylamino)ethoxy]ethoxy)-acetyl]), B25H, B29R, desB30 human insulin (ligand)
chain 1: GIVEQCCTSICSLEQLENYCNK
chain 2: FVNQHLCGSHLVEALYLVCGERGFHYTPR
modifications: A22K(N^ε-[2-(2-[2-(2-[2-(Octadecandioyl-γGlu)amino]ethoxy)ethoxy]acetylamino)ethoxy]ethoxy)-acetyl])
notes: also called C18-gGlu-OEG-OEG, A14E, A22K, B25H, B29R
IR-A affinity (4.5% HSA) [1]: 5%
IR-A affinity (0% HSA) [2]: 22.4%

B7: A18L, A22K(N^ε-Octadecandioyl-γGlu-[2-(2-{2-[2-(2-aminoethoxy)ethoxy]acetylamino}ethoxy)ethoxy]-acetyl), B29R, desB30 human insulin (ligand)
chain 1: GIVEQCCTSICSLYQLELYCNK
chain 2: FVNQHLCGSHLVEALYLVCGERGFFYTPR
modifications: A22K(N^ε-Octadecandioyl-γGlu-[2-(2-{2-[2-(2-aminoethoxy)ethoxy]acetylamino}ethoxy)ethoxy]-acetyl)
notes: also called C18-gGlu-OEG-OEG, A18L, A22K, B29R
IR-A affinity (4.5% HSA) [1]: 23.6%
IR-A affinity (0% HSA) [2]: 339%
